# Laboratory results published in the RNAGym collection of RNA variant scans (doi:10.7554/elife.80360).
# B1: HDV Ribozyme (parent)
# chain: GGCCGGCAUGGUCCCAGCCUCCUCGCUGGCGCCGGCUGGGCAACAUUCCGAGGGGACCGUCCCCUCGGUAAUGGCGAAUGGGACCCA
# Variants of: B1
# Assay: self-cleavage, relative activity (ratio to wild type); higher = more cleavage; co-transcriptional
row,Variant,self-cleavage
1,A71C,0.84
2,A71U,0.93
3,A71G,0.957
4,U72A A87G,0.452
5,U72A A87C,0.81
6,U72A A87U,0.729
7,U69A A87C,1.01
8,U69A A87G,0.99
9,U72G G76A,0.743
10,U72C C75U,0.192
11,U72C C75A,0.256
12,U72A A83C,0.219
13,U72A A83U,0.166
14,U72A A83G,0.318
15,U69A A70U,0.95
16,A70U A77G,0.665
17,A70U A77U,0.35
18,A70U C84U,0.627
19,A71U A78U,0.185
20,U69G A87C,0.822
21,A70G A87U,0.928
22,A70G A87C,0.883
23,U72G C84G,0.214
24,U72G C84A,0.6

row,Variant,self-cleavage
1,A70G A77U,0.426
2,A70G A77C,0.178
3,G68U G74U,0.604
4,A70U G80C,0.213
5,A70U G80A,0.445
6,U69C C86G,1.05
7,U69C C86U,0.727
8,U69C C86A,0.906
9,A71U C75U,0.218
10,U72G A87U,0.735
11,U72G A87C,0.709
12,U69A C85A,0.767
13,U69A C85G,1.16
14,G68U A77U,0.578
15,U69A G76U,0.95
16,U69A G76A,0.727
17,U69A G76C,0.906
18,A71G G81C,0.131
19,A71G G81A,0.475
20,U69A C86G,1.09
21,U69A C86U,0.739
22,U69A C86A,1
23,A71U G81C,0.345
24,A71U G81U,0.185

row,Variant,self-cleavage
1,G68U C86A,0.956
2,G68U C86U,1.05
3,U69C G81C,0.231
4,G68U A78G,0.639
5,G68U A78U,0.237
6,A71U G76A,0.932
7,A71U G76C,0.914
8,U69C G73U,0.489
9,U69C G73C,0.633
10,A71C U79G,0.437
11,A71C U79A,0.529
12,U72G C86U,0.705
13,U72C G82A,0.248
14,U72C G82U,0.145
15,U72C G82C,0.26
16,A71G A83G,1.09
17,U69C U79C,0.404
18,U69C U79G,1.16
19,U72G C85U,0.644
20,A70U G76U,1.07
21,A70U G73A,0.614
22,A70U G73U,0.169
23,A70G G76C,0.956
24,A70G G76U,0.997

row,Variant,self-cleavage
1,A70U G82C,0.35
2,A70U G82A,0.469
3,A70U G82U,0.567
4,U69G A83C,0.554
5,U69G A83U,0.465
6,U72C C84U,0.284
7,A71G G73A,0.689
8,G68C G82A,0.237
9,G68C G82U,0.352
10,A71G U72G,0.516
11,A71G C86G,1.01
12,U69A G80C,0.38
13,U69A G80U,0.141
14,U69C G80U,0.0898
15,A71G A78C,0.138
16,A70U G81A,0.332
17,A70U G81C,0.193
18,A70U G81U,0.469
19,U69A A83G,0.712
20,U72G G73C,0.639
21,U72G G73U,0.554
22,U69C G76A,1.07
23,U69C G76C,1.11
24,U69C G76U,1.29

row,Variant,self-cleavage
1,A70U U79C,0.277
2,A70U U79A,0.831
3,U72G G80A,0.185
4,U69A A71G,0.731
5,A71G G76U,1.1
6,A71U G82C,0.135
7,A71U G82U,0.248
8,U69G G73A,0.746
9,U69G G73C,0.665
10,U72C G80U,0.0791
11,A71G G80U,0.196
12,G68U C84G,0.525
13,G68U U72A,0.277
14,G68U U72G,0.359
15,A70G A78C,0.151
16,A70G A78G,0.655
17,U72G G74A,0.431
18,U72C G81A,0.356
19,U72C G81C,0.271
20,A71C G73U,0.141
21,A71C G73C,0.378
22,A70C U79A,0.72
23,A70C U79G,0.554
24,A71C G81C,0.172

row,Variant,self-cleavage
1,A71C G81A,0.309
2,A71U C85U,1.17
3,U69C A87U,0.993
4,U69C A87C,1.18
5,U69A U72G,0.883
6,U69A U72C,0.665
7,U69A U72A,0.609
8,U72G C75G,0.262
9,U72G C75U,0.0415
10,U72G C75A,0.0665
11,A70C U72G,0.185
12,A70C U72A,0.653
13,U72G A77U,0.185
14,A71C A78U,0.147
15,U72A U79C,0.248
16,A70G G81U,0.0978
17,A70G G81A,0.378
18,U69A G73C,0.264
19,U69A G73U,0.494
20,U69G A77C,0.369
21,A70C C86G,1.35
22,A70C G82A,0.181
23,A70C G82C,0
24,U72A G76U,0.863

row,Variant,self-cleavage
1,U72A G76C,0.65
2,U72G A78U,0.356
3,G68U U69G,0.773
4,G68U U69A,0.912
5,A71C G74C,0.128
6,A71C G74A,0.453
7,U72A G73A,0.617
8,U72A G73U,0.612
9,A70U C75A,0.0898
10,A70U C75G,0.231
11,A70U C75U,0.219
12,A70C C85U,1.07
13,A70C C85G,1.2
14,U72C U79C,0.277
15,U72C U79A,0.369
16,A70G C84A,0.853
17,U69C A70G,0.889
18,A70C G74C,0.262
19,A70C G74A,0.308
20,A71G A77U,0.764
21,A71G A77G,0.88
22,A71G U79A,0.997
23,A71G U79G,0.256
24,A70C G73A,0.407

row,Variant,self-cleavage
1,A70C G73C,0.514
2,A70C G73U,0.302
3,A70G C86A,0.743
4,G68U C75G,0.228
5,G68U C75U,0.225
6,U69G C75U,0.0615
7,G68U G73A,0.481
8,U69G G80U,0.31
9,U69G G80A,0.233
10,U72A C85U,0.764
11,U72A C85A,0.399
12,U72A C85G,0.831
13,A70U A87U,1.2
14,A70U A87G,1.02
15,U69C C75A,0.0536
16,U69C C75G,0.213
17,A71C A87G,0.993
18,A71G A87U,0.95
19,A71G A87G,1.06
20,U72A A78G,0.504
21,U72A A78U,0.161
22,A71C C85G,0.554
23,A70U C85G,0.724
24,U72C C85A,0.633

row,Variant,self-cleavage
1,U72C C85G,0.453
2,A70C C84U,0.594
3,A70C C84A,0.646
4,A71U C84G,0.481
5,A71U C84U,0.475
6,A71U C84A,0.862
7,U69C A77U,0.598
8,U69C A77C,0.612
9,U69G C84U,0.554
10,U69G C84A,0.779
11,U69G A71U,0.974
12,U69G A71C,0.575
13,A71U C86G,0.752
14,A71U C86A,0.729
15,A70G C75A,0.201
16,A70C A87G,0.858
17,A70C A87U,1.04
18,A70C A87C,0.831
19,A70G A83G,0.692
20,A70G A83U,0.511
21,U72C C86A,0.712
22,U72C C86U,0.57
23,U69G C85A,1.18
24,U69G C85G,1.01

row,Variant,self-cleavage
1,G68U A71C,0.973
2,G68U A71U,1.01
3,G68U A71G,1.04
4,G68U U79C,0.415
5,A70U A78G,0.7
6,A70U A78U,0.404
7,U72A A77C,0.199
8,U72C A83G,0.318
9,U69A C84U,0.639
10,U69A C84A,0.935
11,G68U G80A,0.171
12,U69A G82U,0.491
13,G68U G82U,0.265
14,G68U G82A,0.153
15,U69C U72G,0.529
16,U69G G82A,0.453
17,U72C G73U,0.272
18,A71U A87C,0.913
19,A71U G73A,0.432
20,A70C G76A,0.96
21,A70C G76C,0.796
22,U69G G74C,0.383
23,U69C A71G,0.974
24,A71U U72G,0.684

row,Variant,self-cleavage
1,U69C G82U,0.554
2,U69C G82C,0.361
3,G68C U69C,0.697
4,G68C U69G,1.21
5,G68C U69A,0.739
6,G68U G76A,0.953
7,U72A G74C,0.339
8,U69C A83G,0.755
9,U69C A83U,0.431
10,A70G,0.969
11,A70U,0.953
12,A70C,0.894
13,A71U A83G,0.677
14,A71U A83C,0.391
15,A70G U72C,0.54
16,A71G C84G,0.465
17,A71G C84U,0.831
18,G68U A87U,1
19,G68U A87G,0.908
20,A71C C75U,0.199
21,A71C C75A,0.0852
22,A71C C75G,0.131
23,G68U A70C,0.582
24,G68U A70U,0.849

row,Variant,self-cleavage
1,A70C A83G,0.543
2,A70C A83C,0.434
3,G68C G81C,0.0594
4,U72C A78C,0.229
5,A70G C85G,0.831
6,A70C A77G,0.808
7,A70C A77C,0.244
8,A70C C75U,0.0875
9,A70C C75G,0.0615
10,A71C G82U,0.298
11,A71C G82A,0.111
12,U69A A78C,0.208
13,U69A A78U,0.222
14,U69G U72G,0.997
15,U69C G74U,0.575
16,U69C G74A,0.554
17,A71C C86U,0.665
18,A71C C86A,0.831
19,A70G G82C,0.259
20,A70G G82A,0.394
21,U72A C84A,0.639
22,U69A G81C,0.325
23,A71C A83G,0.582
24,A71C A83U,0.297

row,Variant,self-cleavage
1,A71C A83C,0.229
2,U69C A78C,0.322
3,A70G G73U,0.138
4,A70G G73A,0.432
5,U72C A87U,0.595
6,U69G G76A,0.855
7,A70C A78C,0.208
8,A71U G80A,0.175
9,A70U A83U,0.237
10,A70U A83C,0.458
11,G68U C85U,0.972
12,U72A G81A,0.113
13,U72A G81C,0.0898
14,U72A G81U,0.166
15,A70C G81U,0.249
16,A70C G81A,0.453
17,A71U G74C,0.244
18,U69C C85G,0.988
19,U69C C85A,1.14
20,U72A G80C,0.219
21,U72A G80A,0.169
22,A71C C84U,0.604
23,A71C C84A,0.511
24,A70U G74C,0.237

row,Variant,self-cleavage
1,A71G C85U,0.962
2,A71G C85A,0.674
3,A71G C85G,1.03
4,U69G G81U,0.374
5,U69G G81C,0.101
6,U72A C86A,0.79
7,U69G A78U,0.277
8,G68C U79C,0.302
9,U69A U79G,0.831
10,U69A U79C,0.499
11,U72G A83G,0.58
12,U72G A83U,0.166
13,A71G C75A,0.158
14,A71G C75G,0.0755
15,U72A G82C,0.208
16,A71U U79A,0.782
17,A71U U79C,0.314
18,U69A A77U,0.591
19,A70U C86U,1.07
20,A70U C86G,0.872
21,A70U C86A,1.02
22,U69G U79A,0.935
